# T1: GST-OsPGL1^46-604 (rice (Oryza sativa), UniProt B7EDM4)
# T1 chain: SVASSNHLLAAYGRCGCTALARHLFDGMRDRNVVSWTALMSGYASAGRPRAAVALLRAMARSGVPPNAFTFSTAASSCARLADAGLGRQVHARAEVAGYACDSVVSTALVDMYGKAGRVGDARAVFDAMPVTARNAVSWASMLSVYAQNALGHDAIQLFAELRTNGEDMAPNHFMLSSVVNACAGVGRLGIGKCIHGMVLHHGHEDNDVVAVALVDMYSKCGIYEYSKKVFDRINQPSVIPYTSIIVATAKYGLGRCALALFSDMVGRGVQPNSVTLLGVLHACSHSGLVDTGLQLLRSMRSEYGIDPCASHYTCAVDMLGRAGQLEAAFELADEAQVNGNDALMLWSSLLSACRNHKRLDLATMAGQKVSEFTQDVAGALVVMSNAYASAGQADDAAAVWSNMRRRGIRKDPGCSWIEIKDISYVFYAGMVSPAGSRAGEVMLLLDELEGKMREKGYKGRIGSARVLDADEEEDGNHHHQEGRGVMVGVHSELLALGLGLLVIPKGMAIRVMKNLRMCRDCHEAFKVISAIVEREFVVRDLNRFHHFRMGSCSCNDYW
# Target: T1, GST-OsPGL1^46-604
# Assay: GST pull-down
row,binding result,Binder
1,binds,Trx-OsMORF9-His (protein) MASFPTTAAAAAAQAFAFALAPKPSSSAAAPSALFPRTAAAAAFPTLAVRGSGKARQPVVAAAAGAGTGSEQRETILLPGCDYNHWLIVMEFPKDPAPTREQMIDTYLNTLATVLGSMEEAKKNMYAFSTTTYTGFQCTVDEETSEKFKGLPGVLWVLPDSYIDVKNKDYGGDKYINGEIIPCTYPTYQPKERRTSKYESRRYERRRDGPPASRRPRPQTAQPESASSS
2,binds,Trx-OsMORF8-His (protein) MASASRFLLLSRLPAAAASSTSRLLRPLSAAGSLLPAALAPSAPRAAAAAARCFATQPATSSLRDSSPNWSNRPPKETILLDGCDFEHWLVVVEPPPGDPSNPEPTRDEIIDGYIKTLAQVVGSEEEARHKIYSVSTRHYFAFGALVSEELSYKLKELPKVRWVLPDSYLDVRNKDYGGEPFINGEAVPYDPKYHEEWVRNNARANERSRRNDRPRNFDRSRNFERRRENMQNFQNRDVPPGQGFNSPPPPGQGPVPPRDAPPMHHAQGNVPPPPPPNAGPPNYQPHAPNPQGYTNYQQGGAPGYQGGPPGYQGSNQGYQGPPPPPPSAYQGNNPGYQGGGPGYQGGNPPPYQGGNPGYAPGYHGQGGNPSYQQGGDNYNAGVPAYERDGQGRNYQ

# — publication PMC5972581 (2018)
